Results published in publication PMC12458545, “Repurposing a Detrimental Antibody Epitope as Targeted Therapeutics for Sepsis and Rheumatoid Arthritis” (Research Square, 2025).
Entries after “also recorded” stand apart in the source; their conditions may differ.

What was measured:
CLP-induced sepsis [1] = assay: CLP sepsis survival; assay type: in vivo, Balb/C mice
Description: Experimental sepsis was induced in Balb/C mice via cecal ligation and puncture (CLP) as previously described,[30],[37]. […] Briefly, mice were anesthetized intramuscularly with ketamine (75 mg/kg, Henry Schein Animal Health, Dublin, Ohio) and xylazine (10 mg/kg, Sigma-Aldrich) before a midline abdominal incision was made in the lower left abdomen. The cecum was ligated with a 4–0 silk suture at 50% of its length from the distal end, and punctured twice with a 21-gauge needle to induce moderate to severe sepsis. The cecum was returned to the abdominal cavity, and the incision was closed in layers. Approximately 30 min post-CLP, animals received imipenem/cilastatin (0.5 mg/mouse, Primaxin, Merck & Co., Inc.) and 1.0 mL of sterile saline for fluid resuscitation. Animals were randomized to control vehicle and experimental groups, administered P2 or P2–1 intraperitoneally at indicated doses and time points, and monitored for survival rates. To elucidate P2–1’s protective mechanisms, a separate group of Balb/C mice underwent CLP and received P2–1 (1.0 mg/kg) at 2 h and 20 h post-CLP. At 24 h post-CLP, animals were euthanized to collect blood and measure serum cytokines and chemokines using murine Cytokine Antibody Arrays.
All data were first assessed for normality using the Shapiro-Wilk test before applying the appropriate statistical analyses. All data are presented as mean ± standard error of the mean (SEM) unless otherwise specified. For comparison among multiple groups with non-normal (skewed) distribution, the Kruskal-Wallis ANOVA test followed by Dunn’s post-hoc test was used to evaluate statistical differences. Survival curves were analyzed using Kaplan-Meier method and compared using the nonparametric log-rank (Mantel-Cox) test. Statistical significance was defined as a P value less than 0.05.

water solubility = assay type: physicochemical
CLP-induced sepsis [2] = conditions: anti-TN mAbs; mice; cited from earlier work
[3] = target: T1, P5 peptide of tetranectin (Homo sapiens, UniProt P05452); assay: far-Western, overlay or dot blot; synthetic TN peptides P1-P10 spotted (0.1 μg in 2.5 μl) on nitrocellulose, blocked with 5% milk in PBS-T; mAb8 or mAb9 at 1.0 μg/mL; HRP goat anti-mouse IgG, chemiluminescence; conditions: both partners purified
T1 construct: synthetic peptide from the C-terminal portion (CRD) of human tetranectin; S1A, S1B; source: synthetic peptide
T1 chain: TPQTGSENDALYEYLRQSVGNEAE

TN peptides (P1-P10) = assay: dot blot epitope mapping of anti-TN mAbs with TN peptides P1-P10; assay type: binding, human; conditions: peptides 0.1 μg in 2.5 μl on nitrocellulose; mAb 1.0 μg/mL; chemiluminescence
Description: A library of ten synthetic peptides (P1-P10, fig. S1B) corresponding to C-terminus portion of TN protein (fig. S1A) were spotted (0.1 μg in 2.5 μl) onto nitrocellulose membranes (Thermo Scientific, Cat No. 88013). Membranes were blocked with 5% milk in PBS-T (PBS with 0.1% Tween-20) and then incubated with anti-TN monoclonal antibodies (mAb8 or mAb9, 1.0 μg/mL). After washing, membranes were incubated with HRP-conjugated goat anti-mouse IgG (Jackson ImmunoResearch), and signals were detected using chemiluminescence as described,[30].

human PBMCs [4] = conditions: TN; cited from earlier work
Text: To validate these RNA-seq findings, we quantified HMGB1-induced cytokine/chemokine protein levels using Cytokine Antibody Arrays.

human PBMCs [5] = assay: HMGB1-induced pCTS-L secretion, Western blot; assay type: cell-based; conditions: HMGB1 alone
Description: (§1) Human blood was purchased from the New York Blood Center (Long Island City, NY, USA), and PBMCs were isolated by density gradient centrifugation through Ficoll (Ficoll-Paque PLUS) as previously described,[30]. PBMCs were cultured in RPMI-1640 supplemented with 10% human serum, 2 mM L-glutamine, 100 U/mL penicillin, and 100 μg/mL streptomycin (all from Invitrogen). For experiments, PBMCs were stimulated with recombinant human HMGB1 (0.5 or 2.0 μg/ml) for 16 hours, either alone or in combination with P2–1 at 5.0 or 10.0 μg/ml. Cell-free supernatants were collected for analysis of cytokines/chemokines levels by Cytokine Antibody Arrays, or pCTS-L levels by Western blotting analysis as described.
Cell-conditioned medium from human PBMC cultures was collected, and concentrated using Amicon Ultra Centrifugal Filters. Equal volumes of conditioned medium, representing equivalent numbers of cells, were resolved on sodium dodecyl sulfate (SDS)-polyacrylamide gels and transferred to polyvinylidene difluoride (PVDF) membranes. After blocking with 5% nonfat milk in Tris-buffered saline with 0.1% Tween 20 (TBST), membranes were probed with a home-made primary monoclonal antibody against pCTS-L (e.g., mAb2, 1:1000) overnight as previously described. After washing, membranes were incubated with a horseradish peroxidase-conjugated secondary antibody. Protein bands were visualized using enhanced chemiluminescence (ECL) substrate (Pierce) and detected with a chemiluminescence imaging system (e.g., Bio-Rad ChemiDoc MP). The relative levels of specific proteins were determined using the UN-SCAN-IT Gel Analysis Software Version 7.1 (Silk Scientific Inc., Orem, UT, USA) and expressed in arbitrary units (AU).

human PBMCs [6] = assay: RNA-seq of HMGB1-stimulated PBMCs; assay type: cell-based; conditions: HMGB1 stimulation alone
Description: as §1
Total RNA was isolated from human PBMCs stimulated with HMGB1 in the absence or presence of P2–1 (5.0 or 10.0 μg/ml) using the RNeasy Mini Kit (Qiagen) according to the manufacturer’s instructions. RNA quantity and quality were assessed using a NanoDrop spectrophotometer and an Agilent Bioanalyzer. cDNA libraries were prepared using the TruSeq RNA Library Prep Kit v2 (Illumina) and sequenced on an Illumina NovaSeq 6000 platform to generate 100 bp paired-end reads. Raw sequencing reads were quality-checked using FastQC, trimmed with Trimmomatic, and aligned to the human reference genome (GRCh38) using HISAT2. Gene counts were quantified using StringTie and DESeq2 was used for differential gene expression analysis. Volcano plots and heatmaps were generated using ggplot2 and pheatmap packages in R, respectively. Genes with an adjusted P-value < 0.05 and a |log2-fold change| > 1 were considered differentially expressed.

human PBMCs [7] = assay: HMGB1-induced cytokine/chemokine secretion, Cytokine Antibody Arrays; assay type: cell-based; conditions: HMGB1 0.5 or 2.0 μg/ml alone, 16 h
Description: as §1
Levels of cytokines and chemokines in mouse serum and joint tissue lysates, or human PBMC culture supernatants were determined using murine or human Cytokine Antibody Arrays (e.g., Cat. No. M0308003 or Cat. No. AAH-CYT-3–4, RayBiotech Inc., Norcross, GA, USA) as previously described,[30],[86],[87]. Serum samples were collected from mice at 24 h post-CLP. The soft tissue of the hindpaw and ankle joints was carefully collected using a previously described protocol. Briefly, 0.5 g of fresh soft tissue was cut into 3 mm pieces, and mixed with 400 μL of a hypertonic solution (500 mL PBS with 4.5 g NaCl and 2× protease inhibitor cocktail) in a 10 mL syringe. Mechanical extrusion, involving 30 rapid back-and-forth movements of the plunger, was then performed. The expelled extracellular fluid was collected, immediately aliquoted, and stored at −20°C until analysis. Cell-conditioned medium was collected from PBMC cultures after 16 h of stimulation. Arrays were performed according to the manufacturer’s protocol, followed by chemiluminescent detection and densitometric quantification as previously described,[30].

With 55-KVHMKCFLAFTQTKTF-70 [P2] the “survival” value (CLP-induced sepsis [1]; P2 5.0 mg/kg at 2 h and 24 h post-CLP, 5 mg/kg) was “significantly increased survival rates in both male and female mice; also recorded: significantly increased animal survival”, the “animal survival (# of Survivors)” value (CLP-induced sepsis [1]; P2 5.0 mg/kg i.p. at 2 h and 24 h post-CLP, male and female mice, P < 0.05 vs. vehicle) was 60% and the water solubility (water solubility) was “poor water solubility”.

B1: anti-tetranectin monoclonal antibody mAb8 (antibody, V domains shown)
VH: DVNLVESGGGLVKLGGSLKLSCADSGFTFSSYYMSWVRQTPEKRLELVAAINSNGGRTYYPDTVKGRFTISRDNAKNTLYLQMSSLKSEDTALYYCARQGKNGLDYWGQGTSVTVSS
VL: DIQMTQTTSSLSASLGDRVTISCRASQDISNHLNWYQQKPDGTIKLLIYYTSRLHSGVPSRFSGSGSGTDFSLSISNLEQEDIATYFCQQGKTLPPTFGGGTKLEIK
notes: mouse monoclonal antibody; also called protective anti-TN mAb; source: generated in Balb/C and C57BL/6 mice as previously described [6,30]; hybridoma
In the case of B1, the “effect on septic survival/lethality” value (CLP-induced sepsis [2]) is listed as “protected mice against sepsis”, the binding result [3] is listed as “binds” and the “TN peptide bound in dot blot” value (TN peptides (P1-P10)) is listed as “targeted P5; also recorded: binds P5”.

B2: TN: full-length human tetranectin (residues 1-181) (protein, UniProt P05452 22-202, looked up)
Tetranectin: EPPTQKPKKIVNAKKDVVNTKMFEELKSRLDTLAQEVALLKEQQALQTVCLKGTKVHMKCFLAFTQTKTFHEASEDCISRGGTLGTPQTGSENDALYEYLRQSVGNEAEIWLGLNDMAAEGTWVDMTGARIAYKNWETEITAQPDGGKTENCAVLSGAANGKWFDKRCRDQLPYICQFGIV
In the case of B2, the “HMGB1-induced cytokines (e.g., IL-6) and chemokines (e.g., MCP-1)” value (human PBMCs [4]) is listed as “did not affect HMGB1-induced cytokines (e.g., IL-6) and chemokines (e.g., MCP-1)”.

B3: HMGB1: recombinant human HMGB1 expressed in E. coli; PBMC stimulus and SPR target (protein)
chain: MGKGDPKKPRGKMSSYAFFVQTCREEHKKKHPDASVNFSEFSKKCSERWKTMSAKEKGKFEDMAKADKARYEREMKTYIPPKGETKKKFKDPNAPKRPPSAFFLFCSEYRPKIKGEHPGLSIGDVAKKLGEMWNNTAADDKQPYEKKAAKLKEKYEKDIAAYRAKGKPDAAKKGVVKAEKSKKKKEEEEDEEDEEDEEEEEDEEDEDEEEDDDDE
In the case of B3, the “pCTS-L expression and secretion” value (human PBMCs [5]) is reported as “induced pCTS-L expression and secretion in human immune cells”, the “gene expression of inflammatory cytokines and chemokines” value (human PBMCs [6]) is reported as “profoundly upregulated many inflammatory cytokines” and the “cytokine and chemokine protein levels (e.g., TNF, IL-6, IL-10, CXCL5, CXCL1, CXCL8, CCL2, CCL7)” value (human PBMCs [7]) is reported as “significantly increased protein levels of various cytokines”.
